The record followed here is patent publication US20230398151A1.

Where two headings read alike, the source gives them in different places.

Assay [1] addresses TGFβ1 (R&D systems) (UniProt P01137). As to the kind of experiment: cell-based or functional assay.
The target is the same in assay [2]. As to the kind of experiment: cell-based or functional assay. The source holds these as a separate data set.

Chain of TGFβ1 (R&D systems) (P01137 279-390 limits assumed): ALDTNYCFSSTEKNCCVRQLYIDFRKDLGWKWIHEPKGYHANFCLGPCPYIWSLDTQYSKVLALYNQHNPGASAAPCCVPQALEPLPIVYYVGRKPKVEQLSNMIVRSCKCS

As for “TGFR-Fc (R&D Systems) (from UniProt P37173 24-159) (Fc fusion)”, the IC50 of TGFβ1 activity in HEK-Blue TGFβ cells in assay [1] is 0.461 nM; in assay [2], 0.559 nM.
